For one sequence, averaged percent cytotoxicity and blocking syncytia formation results are on record in patent US20030017497A1, “Peptide mimotopes of carbohydrate antigens” (priority 1998, published 2003).

One series concerns WM793. The series is described as follows: Complement dependent cytotoxicity (CDC). It counts as cell-based, human. The text has this:
(§1) Anti-carbohydrate antibodies may mediate complement dependent cytotoxicity (CDC) better than cytotoxicity associated with various effector cells. Subsequently, we have initially examined CDC mediation of various sera raised either to peptides or against the multivalent LeY-PAA form. […] We examined the ability of the sera to mediate complement dependent cytotoxicity (CDC) of the SKBR3 and MCF7 human breast adenocarcinoma cell lines, the ovarian tumor cell line OVAR-3 and the human melanoma lines WM793 and SKMEL-28 compared to that of the LeY-PAA generated sera. Positive control antibodies were BR55-2 which mediates CDC of the adenocarcinoma lines, and ME361 which mediates killing of WM793. Negative controls were pre-immune sera, an irrelevant peptide immunogen (C1) and two peptides (G1 and G2) isolated from phage display that are reactive with ME361.

The next series deals with SKME1-28. The series is described as follows: Complement dependent cytotoxicity (CDC). Format: cell-based, human.
From the text: as §1

A further series has as its system OVAR-3. The series is described as follows: Complement dependent cytotoxicity (CDC). It counts as cell-based, human.
From the text: as §1

The subject of a further series is SKBR3. The series is described as follows: Complement dependent cytotoxicity (CDC). Format: cell-based, human.
From the text: as §1

A further series concerns MCF-7. In words: Complement dependent cytotoxicity (CDC). It counts as cell-based, human.
From the text: as §1

The test system of the next series is HIV-1/MN. In words: HIV-1 cell free neutralization (syncytia formation). Format: cell-based. Particulars: anti-peptide sera. The text has this:
FIGS. 7A, 7B and 7C depict anti-peptide sera mediation of HIV-1 cell free neutralization.
Mannose, sialyl and histo-blood group related carbohydrate epitopes (particularly LeY) are found on the major envelope protein of the human immunodeficiency virus (HIV). Consequently, we examined the extent to which the anti-peptide sera could mediate HIV-1 cell free neutralization. We observed that sera from Balb/c and C57B1/6 mice immunized with P1 or P2, neutralized HIV-1/MN at final dilution's up to 1:64 (FIGS. 7a-c). FIG. 7a illustrates the neutralization of HIV-1/MN by anti-P1 and P2 sera from Balb/c mice. Normal human sera (NHS), as well as the anti-P3 sera, were ineffective at blocking syncytia formnation, whereas human α-HIV-1 sera from 4 different infected patients neutralize cell free virus at dilution's up to 1:64. Sera derived from C57B1/6 mice also followed this profile (FIG. 7b). The isolate specificity was further determined by cell free neutralization of the HIV-1/3B isolate (FIG. 7c).

On to “GGIYYRYDIYYRYDIYYRYD (Novel Sequence) [Peptide P3]”, for which the averaged percent cytotoxicity is listed as 28% in the series on WM793; 32% in the series on SKME1-28; 86% in the series on OVAR-3; 86% in the series on SKBR3; 56% in the series with MCF-7. Besides, the blocking syncytia formation result with HIV-1/MN is given as “ineffective”.
